Results on 1 molecule are retold here after patent publication US20230056815A1 (VIELA BIO, published 2023).

Experiment [1] addresses T1, mouse soluble FLT3L (mouse, UniProt P49772 27-189).
T1 construct: extracellular domain; also called mouse sFLT3L; muFLT3L
T1 sequence (looked up): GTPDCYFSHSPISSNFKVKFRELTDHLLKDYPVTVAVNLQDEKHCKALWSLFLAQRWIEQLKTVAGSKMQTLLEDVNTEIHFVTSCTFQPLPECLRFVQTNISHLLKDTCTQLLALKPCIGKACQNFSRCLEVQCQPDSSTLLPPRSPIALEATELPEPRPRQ
The experiment can be described thus: inhibition of FLT3 downregulation on RS4;11 cells by soluble mouse FLT3L (N/A in Table 3). On the procedure: Screening assay conditions were further refined to determine ideal cell culture conditions for evaluating anti-FLT3L candidate clones. Final conditions were: 50,000 RS4;11 cells per well incubated with 96 pM rhuFLT3L with or without anti-FLT3L mAb candidate clones in complete Roswell Park Memorial Institute (RPMI) media with one percent bovine serum albumin (BSA) for 2 hours in an humidified incubator set at 37° C., 5% CO2. Subsequent downregulation of FLT3 expression was determined by flow cytometry as measured either as raw MFI or % downregulation. […] (FIG. 3A). Assay efficacy was confirmed using a commercially available mouse anti-huFLT3L antibody control (MAB608, R&D Systems) (FIG. 3B). Due to the cross-species reactivity of FLT3 with its ligand, this assay was effective for testing clones against human, cyno, and rodent FLT3L, despite being a human cell line. For mouse FLT3L, the EC80 was 36 pM.
Upon ligation of FLT3L to FLT3, the receptor dimerizes, autophosphorylates, and propagates a signaling cascade once internalized. This process, measured by FLT3 downregulation, can be inhibited by antibodies that bind FLT3L. Thus, lead candidates were tested for their ability to inhibit FLT3 downregulation on RS4;11 cells by binding human, mouse, or cynomolgus monkey (cyno) soluble FLT3L (sFLT3L). […] FLT3 expression on RS4;11 cells was determined using flow cytometry and reported as MFI.

Experiment [2] deals with T2, human FLT3L on the cell surface (human, UniProt P49771 27-235).
T2 construct: whole, on cells; The assay field of each row says which cells carried it; also called cell-surface FLT3L; huFLT3L-expressing CHO cells
T2 sequence (looked up): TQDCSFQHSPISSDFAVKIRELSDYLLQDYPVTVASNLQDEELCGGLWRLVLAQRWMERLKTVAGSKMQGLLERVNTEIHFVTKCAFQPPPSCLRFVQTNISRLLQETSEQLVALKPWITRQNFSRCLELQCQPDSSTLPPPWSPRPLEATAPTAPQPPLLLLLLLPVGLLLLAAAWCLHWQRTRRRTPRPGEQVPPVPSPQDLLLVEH
Kind of experiment: flow cytometry on CHO cells expressing full-length human FLT3L, PE anti-hu IgG; CHO cells transfected with full-length human FLT3L; maximum occupancy relative to FLT3-Fc. As to the method: (§1) Consistent with this, cell surface binding to human, cyno, and mouse FLT3L was evaluated by transfecting Chinese hamster ovary (CHO) cells with the respective full-length protein for each species. Candidate clones were incubated with FLT3L-expressing cell lines for 1 hour at 4° C. before being washed twice to remove unbound antibody. Cells were then incubated with PE-labeled goat anti-hu IgG secondary detection pAb to quantitate bound antibody which was measured by flow cytometric analysis of PE signal. The huFLT3-Fc construct, on a hu IgG backbone, was used as a positive control reagent for FLT3L expression as it cross reacts with cyno and mouse, in addition to human ligand.
(§2) As differences were apparent in the degree of receptor occupancy for each clone, both EC50 and max occupancy were noted (expressed as percent relative to FLT3-Fc) and taken into account in the final evaluation. Results are shown in Table 4 for human, cyno, and mouse FLT3L expressed in CHO cells.

For experiment [3], the target named is T3, mouse FLT3L on CHO cells (mouse, UniProt P49772 27-232).
T3 construct: whole, on cells; also called cell surface mouse FLT3L
T3 sequence (looked up): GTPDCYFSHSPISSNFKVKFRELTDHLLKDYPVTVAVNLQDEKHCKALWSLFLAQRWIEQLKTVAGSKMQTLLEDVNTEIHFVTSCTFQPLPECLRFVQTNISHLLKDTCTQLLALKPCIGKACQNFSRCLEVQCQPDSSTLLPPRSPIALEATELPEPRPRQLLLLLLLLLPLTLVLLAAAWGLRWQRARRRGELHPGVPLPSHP
Kind of experiment: flow cytometry on CHO cells expressing mouse FLT3L, anti-hu IgG-PE detection. On the procedure: as §1
In general terms: In flow cytometry, cells or beads pass a laser one at a time.

In experiment [4] the target is T4, recombinant human stem cell factor (SCF) (human, UniProt P21583 26-189).
T4 construct: also called huSCF; KIT-ligand
Kind of experiment: ELISA on coated recombinant human SCF. As to the method: (§3) To test this, an ELISA plate was coated with 2 µg of recombinant human SCF or CSF1. After washing, the plate was blocked with 3% milk in Tris-Phosphate Buffered Saline (TPBS) and lead antibodies were added in serial (×2) dilution, starting at 50 µg/ml. After incubation, unbound antibody was removed by washing and bound antibody was detected using anti-human IgG-HRP in combination with TMB substrate for color development. Commercially available goat anti-SCF pAb and mouse anti-CSF1 mAb were used as positive binding controls.
Background: ELISA stands for enzyme-linked immunosorbent assay.

In experiment [5] the target is T5, recombinant human colony stimulating factor 1 (CSF1) (human, UniProt P09603 33-190, limits assumed).
T5 construct: also called huCSF1; huCSF
T5 sequence (looked up): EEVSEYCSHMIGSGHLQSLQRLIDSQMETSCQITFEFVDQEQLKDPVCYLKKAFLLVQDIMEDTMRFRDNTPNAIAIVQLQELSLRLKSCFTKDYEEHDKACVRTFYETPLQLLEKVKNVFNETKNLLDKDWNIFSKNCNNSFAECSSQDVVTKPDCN
Kind of experiment: ELISA on coated recombinant human CSF1. On the procedure:
as §3

Experiment [6] concerns the target T6, cynomolgus monkey FLT3L on CHO cells (cynomolgus monkey).
T6 construct: whole, on cells; also called cell surface cyno FLT3L
The experiment can be described thus: flow cytometry on CHO cells expressing full-length cyno FLT3L, PE anti-hu IgG. On the procedure:
as §1, §2

Experiment [7] addresses T7, human soluble FLT3L (recombinant huFLT3L) (human, UniProt P49771 27-184).
T7 sequence (looked up): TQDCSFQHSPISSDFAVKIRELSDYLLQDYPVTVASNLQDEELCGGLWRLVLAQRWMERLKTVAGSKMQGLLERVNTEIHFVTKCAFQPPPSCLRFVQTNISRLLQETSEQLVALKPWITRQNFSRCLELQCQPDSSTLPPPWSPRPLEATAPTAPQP
The experiment can be described thus: cell-based or functional assay.

Experiment [8] concerns the target T7, human soluble FLT3L (recombinant …). Kind of experiment: cell-based or functional assay. The source holds these as a separate data set.
In experiment [9] the target is cynomolgus monkey soluble FLT3L (cynomolgus monkey). Kind of experiment: cell-based or functional assay.
Experiment [10] addresses T2, human FLT3L on the cell surface. Kind of experiment: flow cytometry on CHO cells expressing full-length human FLT3L, PE anti-hu IgG; CHO cells transfected with full-length human FLT3L, PE anti-hu IgG. As to the method: as §1, §2

T4 sequence (P21583 26-189 limits assumed): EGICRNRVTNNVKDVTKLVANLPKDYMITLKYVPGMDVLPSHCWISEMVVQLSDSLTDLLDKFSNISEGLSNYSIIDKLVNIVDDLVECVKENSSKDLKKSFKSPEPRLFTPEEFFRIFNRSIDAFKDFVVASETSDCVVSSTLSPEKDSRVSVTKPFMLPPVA

B1: CAT5D9 antibody (IgG1 TM format) (antibody, V domains shown)
VH: QVQLVQSGAEVKKPGSSVKVSCKISGGTFSSYALSWVRQAPGQGLEWMGGIIPVFRTASYAQKFQGRVTITVDESASTGYIELSSLKSEDTATYYCASNNYVWGSYRFWGQGTTVTVSS
VL: NFMLTQPHSVSESPGKTVTISCTRTSGNIAGYFVQWYQQRPGSSPTTVIYEDYQRPSGVPDRFSGSIDRSSNSASLTISGLKPDDEADYYCQSYDDTSQGVFGAGTKVTVLG
notes: also called clone 5D9; parental 5D9
As a reminder, the EC50 is the concentration that produces a half-maximal response. As for B1, the binding result in experiment [1] is recorded as “no binding”; in experiment [3], “no binding (tested: x = -7.2 (x axis without title or unit))”; in experiment [4], “no binding (tested: about 0.3 uM)”; in experiment [5], “no binding (tested: about 0.3 uM)”. In addition, the “maximum occupancy (% relative to FLT3-Fc)” value stood at 40% in experiment [2] and 100% in experiment [6]. Besides, the 50% effective concentration (EC50) in [6] is 1.1 nM; in experiment [10] it was 0.157 nM. In [7], the “IC50 (nM) against 0.476 nM FLT3L, ERK phosphorylation in CD133+ stem cells” value worked out at 187 nM. Also, the “IC50 (nM) against 0.476 nM FLT3L, MEK phosphorylation in CD133+ stem cells” value in experiment [7] came to 181 nM. Also, the entries for the “IC50 (nM), inhibition of FLT3 downregulation on RS4;11 cells” value in experiment [8] and in experiment [9] were 385 nM and 564 nM, respectively.
